Reference: publication PMC11685497 (Nature Communications, 2024)

Experiments:
[1] = target: wild-type soluble CD73 (ecto-5'-nucleotidase), recombinant (human); assay: cryo-EM structure
[2] = target: T1, wild-type soluble CD73 (ecto-5'-nucleotidase), recombinant (Homo sapiens); assay: HDX-MS
T1 chain: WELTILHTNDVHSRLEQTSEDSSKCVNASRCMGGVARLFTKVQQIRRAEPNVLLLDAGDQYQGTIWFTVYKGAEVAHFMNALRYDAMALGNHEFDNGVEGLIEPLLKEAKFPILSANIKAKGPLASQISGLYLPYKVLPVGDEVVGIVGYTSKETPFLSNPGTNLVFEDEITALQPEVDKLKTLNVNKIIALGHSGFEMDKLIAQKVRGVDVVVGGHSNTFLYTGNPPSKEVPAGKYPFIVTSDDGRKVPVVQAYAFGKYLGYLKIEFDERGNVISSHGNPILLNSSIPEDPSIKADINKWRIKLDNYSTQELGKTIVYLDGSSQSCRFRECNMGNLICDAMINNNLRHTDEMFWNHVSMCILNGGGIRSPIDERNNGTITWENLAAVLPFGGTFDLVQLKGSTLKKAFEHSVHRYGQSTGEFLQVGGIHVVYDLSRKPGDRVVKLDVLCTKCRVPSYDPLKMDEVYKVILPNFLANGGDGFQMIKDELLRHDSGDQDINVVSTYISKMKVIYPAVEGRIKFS

[3] = target: T1, wild-type soluble CD73 …; assay: negative-stain EM
[4] = target: human CD73, membrane-bound, on CHO-K1 cells (CHO-K1-huCD73-3F4) (Homo sapiens, UniProt P21589); assay: flow cytometry on cells

Row | Molecule | stoichiometry N [1] | binding result [2] | binding result [3] | EC50 [4]
1 | wild-type soluble CD73 (ecto-5'-nucleotidase), recombinant (enzyme) | 2 | – | – | –
2 | HB0039 Fab (Fab, V domains shown) VH: QVQLVQSGAEVKKPGASVKLSCKASGYTFTSYWIHWVRQAPGQGLEWIGMIHPNSGSTYYNEKFKGRATLTVDKSTSTAYMELSSLRSEDTAVYYCARYYGSDYEWYFDVWGQGTTV VL: IQMTQSPSSMSASVGDRVTITCKASQNVRTAVVWYQQKPGKAPKALIYLASNRHTGVPDRFSGSGSGTDFTLTISSLQPEDFATYFCLQHWNYPYTFGQGTKL | – | binds | – | –
3 | HB0039 (humanized anti-human CD73 monoclonal IgG1, L234A/L235A) (antibody, V domains shown) VH: QVQLVQSGAEVKKPGASVKLSCKASGYTFTSYWIHWVRQAPGQGLEWIGMIHPNSGSTYYNEKFKGRATLTVDKSTSTAYMELSSLRSEDTAVYYCARYYGSDYEWYFDVWGQGTTV VL: IQMTQSPSSMSASVGDRVTITCKASQNVRTAVVWYQQKPGKAPKALIYLASNRHTGVPDRFSGSGSGTDFTLTISSLQPEDFATYFCLQHWNYPYTFGQGTKL | – | – | binds | 0.24 nM
4 | HB0038 (humanized anti-human CD73 monoclonal IgG1, L234A/L235A) (antibody, V domains shown) VH: QVQLVESGGGLVKPGGSLRLSCAASGFTFSKYAMSWIRQAPGKGLEWVAEISSGGGYINYADSVKGRFTISRDNAKNSLYLQMNSLRAEDTAVYYCARAIYYYGSSYNYYAMDYWGQGTTVTVS VL: DIQMTQSPSSLSASVGDRVTITCRASQDVGTAEAWYQQKPGKAPKLLIYWASTRHTGVPSRFSGSGSGTDFTLTISSLQPEDFATYYCQQYSSYPLTFGQGTKL | – | binds | – | 11.8 nM
5 | HB0038 Fab (Fab, V domains shown) VH: QVQLVESGGGLVKPGGSLRLSCAASGFTFSKYAMSWIRQAPGKGLEWVAEISSGGGYINYADSVKGRFTISRDNAKNSLYLQMNSLRAEDTAVYYCARAIYYYGSSYNYYAMDYWGQGTTVTVS VL: DIQMTQSPSSLSASVGDRVTITCRASQDVGTAEAWYQQKPGKAPKLLIYWASTRHTGVPSRFSGSGSGTDFTLTISSLQPEDFATYYCQQYSSYPLTFGQGTKL | – | – | binds | –
